From article PMC5039622, “Characterization of aspartyl aminopeptidase from Toxoplasma gondii” (Scientific Reports, 2016)

How the values were obtained:
[1] = biological target: T1, rTgAAP (TgAAP, aspartyl aminopeptidase) (Toxoplasma gondii, UniProt A0A7J6KF82); assay: inhibition of H-Glu-MCA hydrolysis; format: biochemical; conditions: 1 h pre-incubation at 37 °C; substrate H-Glu-MCA
T1 construct: gene TGRH88_002740; full-length CDS 1521 bp, ~56 kDa (55897 Da predicted in ToxoDB), N-terminal GST tag kept (~80 kDa), E. coli BL21, pCold III; mainly dodecamer, also trimer and monomer on native PAGE
T1 sequence (A0A7J6KF82 1-508): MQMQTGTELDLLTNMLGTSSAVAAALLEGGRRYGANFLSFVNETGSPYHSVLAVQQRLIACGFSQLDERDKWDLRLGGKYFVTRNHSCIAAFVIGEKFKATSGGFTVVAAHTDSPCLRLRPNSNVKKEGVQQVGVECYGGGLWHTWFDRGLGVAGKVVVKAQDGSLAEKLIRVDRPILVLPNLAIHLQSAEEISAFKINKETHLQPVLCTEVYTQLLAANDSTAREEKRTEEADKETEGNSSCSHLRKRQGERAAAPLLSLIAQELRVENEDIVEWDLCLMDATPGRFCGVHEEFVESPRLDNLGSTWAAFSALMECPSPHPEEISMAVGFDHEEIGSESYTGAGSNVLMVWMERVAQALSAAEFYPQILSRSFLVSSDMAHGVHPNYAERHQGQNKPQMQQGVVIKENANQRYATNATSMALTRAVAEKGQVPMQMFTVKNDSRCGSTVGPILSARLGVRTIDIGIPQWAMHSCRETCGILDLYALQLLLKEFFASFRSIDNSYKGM

[2] = substrate: Cc1cc(=O)oc2cc(NC(=O)[C@@H](N)CC(=O)O)ccc12; assay: fluorogenic MCA release, initial rates; format: biochemical, Toxoplasma gondii; conditions: 37 °C, enzyme 0.3 μM, metal not stated for the kinetics
Description: (§1) fluorogenic MCA release, initial rates on rTgAAP (TgAAP, aspartyl aminopeptidase)

[3] = substrate: Cc1cc(=O)oc2cc(NC(=O)[C@@H](N)CC(N)=O)ccc12; assay: fluorogenic MCA release, initial rates; format: biochemical, Toxoplasma gondii; conditions: 37 °C, enzyme 0.3 μM, metal not stated for the kinetics
Description: as §1

[4] = substrate: Cc1cc(=O)oc2cc(NC(=O)[C@@H](N)CCC(=O)O)ccc12; assay: fluorogenic MCA release, initial rates; format: biochemical, Toxoplasma gondii; conditions: 37 °C, enzyme 0.3 μM, metal not stated for the kinetics
Description: as §1

[5] = substrate: Cc1cc(=O)oc2cc(NC(=O)[C@@H](N)CO)ccc12; assay: fluorogenic MCA release, initial rates; format: biochemical, Toxoplasma gondii; conditions: 37 °C, enzyme 0.3 μM, metal not stated for the kinetics
Description: as §1

[6] = substrate: Cc1cc(=O)oc2cc(NC(=O)[C@@H](N)Cc3c[nH]cn3)ccc12; assay: fluorogenic MCA release, initial rates; format: biochemical, Toxoplasma gondii; conditions: 37 °C, enzyme 0.3 μM, metal not stated for the kinetics
Description: as §1

[7] = substrate: Cc1cc(=O)oc2cc(NC(=O)[C@@H]3CCCN3)ccc12; assay: fluorogenic MCA release, initial rates; format: biochemical, Toxoplasma gondii; conditions: 37 °C, enzyme 0.3 μM, metal not stated for the kinetics, printed kcat/Km 0.28 disagrees tenfold with printed kcat and Km
Description: as §1

Molecule: Cl.Oc1ccc(CCNc2c3ccccc3nc3ccccc23)cc1O [CID 23724194]
- % inhibition at 1 mM [1]: > 50%

B1: rTgAAP (TgAAP, aspartyl aminopeptidase) (Toxoplasma gondii) (protein)
chain: T1 sequence (A0A7J6KF82 1-508)
notes: full-length CDS 1521 bp, ~56 kDa (55897 Da predicted in ToxoDB), N-terminal GST tag kept (~80 kDa), E. coli BL21, pCold III; mainly dodecamer, also trimer and monomer on native PAGE
- Km [2]: 12.84 ± 0.21 µM
- kcat [2]: 1.1 ± 0.0648 s⁻¹
- kcat/Km [2]: 85700 M⁻¹ s⁻¹
- Km [3]: 24.32 ± 0.26 µM
- kcat [3]: 0.484 ± 0.0126 s⁻¹
- kcat/Km [3]: 19900 M⁻¹ s⁻¹
- Km [4]: 7.35 ± 0.73 µM
- kcat [4]: 1.4 ± 0.306 s⁻¹
- kcat/Km [4]: 190000 M⁻¹ s⁻¹
- Km [5]: 92.87 ± 3.38 µM
- kcat [5]: 0.123 ± 0.0086 s⁻¹
- kcat/Km [5]: 1330 M⁻¹ s⁻¹
- Km [6]: 88.70 ± 2.53 µM
- kcat [6]: 0.208 ± 0.0043 s⁻¹
- kcat/Km [6]: 2350 M⁻¹ s⁻¹
- Km [7]: 98.55 ± 1.96 µM
